assay: soluble fraction after stress (log2 fold change); higher = more stays soluble; pooled small domains, quantitative proteomics; conditions: stress: pH 4
Method in brief: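 Pooled custom libraries of small protein domains were subjected to pH 4 and measured by high-throughput quantitative proteomics. The log2 fold change in soluble amount per domain is reported, higher values meaning more remained soluble. This is used as a measure of aggregation propensity.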

| Sequence | soluble fraction (log2) |
| --- | --- |
| HMFTEEQMDWLRLIKDHIVASLSILPEDLELTPFDRKGGLLGFYDAFGDEYEKILQEMNEELVA | -0.43 |
| HMFTEIMAERNALIQAIQQNLPPQHIQSILSKKNKFRLEDLTNEELRDVWQWILNQRQAQQHQQQ | -0.373 |
| HMFTGELESRVFELNYVDGLVASAALAGVLTDKGSATPIASRAGGENDMLLVVDRIASYSQIEKIITQLD | -1.31 |
| HMFTKSNLEKLSNSELILKAIDSGNYSKIEFGGSEALNPDVPSYKKDLKNREELIEILSEMGM | -0.0908 |
| HMFVNADEIAKGLSPFNPSSVAIEAGRLMLKRIGELLSAGVSFSVETTLSTRSYINLIQQAQNQGYSVSL | ≥ 0.43 |
| HMFVVVPDLIGKTINQFEEDLSELNLKYVVSDSGNFNPEFKINAVLDQSPKANSKVKDGRKIYLTLNAS | -0.324 |
| HMFWRKIDFYGLNLSTYRNIINIGSDYNYIYLDLGNIYKILNPITGKIIEEQDLVMNIDNINWSS | -0.105 |
| HMFYNDLINFDVFRDSRKIGKIENINSRLPQPVFEIMYDSRIVLIPIHEDFIRKIDKVNNIIYLDIPDGLL | -1.69 |
| HMGAAFITSSKDNAINIRQSANTDSKVIETVTNGQILESNEKSGEWHKVTYYDNDIKKSFTGYVHEGQLK | -0.129 |
| HMGAAIEYGDRGNTVLQAQRLLIARGYMAGSADGIYGRQMEQAVKRFQKEQGLPESGVVDRRTLQVLIRSR | 0.04 |
| HMGAARRFEMSEGGSQKFWEVAVEGPALTVRFGKLGTAGTTQTKTLASAEAAAKEADKLVREKTKKGYAP | -0.596 |
| HMGAATQADIARVQELLNRLGYDAGSPDGLMGPRTRDAILEYQLTEGLETTGTVTRETLASLEARL | -0.939 |
| HMGAGFREAIPPALDGERIDRVVSLLAYVSRNRAAGALAAGSVSVDGEVVFQRSRRVREGEELVVTGFERE | -0.427 |
| HMGAITGLQSRVAFLKGQGTITDAEAKTAMAFLPDPTDSKEVKIAKIGQAREYIMSLIENRA | -0.0578 |
| HMGAIVTGTVVEIRSDVVIVNAGLKSEGVVPIEQFRNEAGELEVSVGDEVKVALDALEDGFGETRLS | -1.97 |
| HMGAIVTVPDLAGRPQPGAEAELRRSGLVPKVRTSYSLTGTRGTVISQTPPAGSRVREGAEVEVVVSRGLN | 0.0493 |
| HMGAKLTTAQGGTLKVLVKGKKTHTPTIELRDKDPDFPNAKVVQPDINKGNKQIAHGINGVL | 0.144 |
| HMGALAITPDFVGQTREEAERFLRDLDLSFDIGGKGDRILRQEPVAGQRMNLDQPMKLWVGSMNA | -0.313 |
| HMGANAVAAFTARVRTGPSTGYPVRISVPQGRQVRVISGPYGGWYRVSYQGLTGYTYGGLLRQG | -0.222 |
| HMGAPAISYSKFLEQVDRKNVASVTIYKDGRIDGVMTSGSRFATESPSDPGLVGDLLKAGVEIRAKPP | 0.144 |
| HMGAPVIYELTAESAAGQRIDKYLSGQLADLSRSYLQKLLKDGGVEVNKKPVKSNYKLSEGDQIRLEVPEA | -0.198 |
| HMGAQINSPISGTILKYLVKNGDKITKDQPLVNIESMKMENTIKSDKEGIVNNINFKIGDSVNTADTLLTL | 0.22 |
| HMGAQKITIPDFSNQEATQVYAELKNMGLEYTESRMNHPSIASGYVIKTEPTKGSEVKAGTTVTVYVSLG | -0.128 |

| Sequence | soluble fraction (log2) |
| --- | --- |
| HMGARHPLPYPFARAHGLLLEADGERSTLWASTNVSPAALSEVMRKYAVDVIEEEPPETLSQRIAAAYAA | -0.763 |
| HMGASFITSSKDNAINIRESATTDSKVIETIKNGEILESTEKSGDWHKVTYYNSEIKKSFTGYIHNSQLK | -0.151 |
| HMGASLVIVPGAGFLRVSASSQTRLDVYSITGMRVRSVDFEPGTTEIELPAGFYIAGGRKFFV | -0.124 |
| HMGAYITYEVKPGDTLWDIANKFPGVSADNIKTWNKVDELIKAGERLKINTQTITDYSPDKYPS | -0.575 |
| HMGDADDLSRELLQQGLSLKEAVADFERRYLQQAMQRHSSIASVSEALDVHFSTLWRKLVKYNLV | -0.621 |
| HMGDADDLTRIKGIGPKLSKTLNELGIYHFRQIAGWQSDEADWVDDYLSFKGRVMREQWIEQAQKFAS | -0.292 |
| HMGDAIPVPDVSGFSEDQAMNNLRKVGLRPKATYVADDNTAKGYVTGTSPAKNIEVAPDSEVIVYVSSGP | 0.241 |
| HMGDAPLITVDKRTIKVNGAKAQIQVYDTTGRLVKNVSPAGKLTLIEMAKPGIFIVHTQSMSFKVVL | 0.00664 |
| HMGDAVYSKVKDLVNTYNALAKQTGKSDLVSISQSRTWMVNDTKAHEVQWNKIGITIEDDQTLTI | -0.13 |
| HMGDLDLVTFGQRLRHLRRSRNMTLSELGERVGRAPSQLSLLENGKREPKLSLLTALAKALDVSVEEL | 0.178 |
| HMGDLVKGKVVGYDPDNVIVDIGAKTNALVPNREAVVEAGDDIKETLKKGNEYEFLIIRDEDEEGEFL | 0.0813 |
| HMGDPEYFKKQLGDFMDRFNITSEDIKNLSIAGAINRMMNNAEGEDKTVLSKLLETVNKSGVGNLPAKTI | -0.144 |
| HMGDPVRVDKFLHDMNVGTRSQIRKLIKEKAVFVNDVVAKSGRVKVDPVVDQVRLGEQVITYQ | 0.0055 |
| HMGDPYAILGLLPGASMEDVRHAWRRQAAENHPDRMLQRGAPPEFVEIAREKTAAINAAYARIREELSI | -0.638 |
| HMGDTIGEQKAKEIALEHAGLKSSDVTFIRAVLEYDDRNWEYDVEFYDADTYTEYDYEIDAHTGKILSFDH | -0.171 |
| HMGDTPVDFSEFIRWVDTGVVDRVELTGNEIVGTSSSGERFSTYAPPQYEGLGNKLIERDIVVVATAA | -1.21 |
| HMGDTVSGTMLNLKPGVRVVHQIFGPGRVEETTGASLAEFRVTVRFEQKGLKTLLLQYAALQVINSEN | -1.05 |
| HMGDVKLNAIYNFLKEFSALNGFPPSVREIGAKFGIKSTSTVHYYLEKLKQSGVIQQEENKKRAVVIN | -0.446 |
| HMGDWEDFWEKEARRRKLSLDYQVVRSLSRWSREYDWGEEDVEQFLSQFPEGETVKMEDVELYFE | -1.41 |
| HMGDYDHYVVKVEDTLLNWLVTNVTTMSRNKLKDILAGQGIKVNGKITTKYDYPLTPGMKIAISKTKR | -0.351 |
| HMGEAIPVPDIRHKSQADAERLLQDQGLAMMVTDTGYVKTLPANYILEQIPVAGEKVKSGHVVYVIINSG | 0.0317 |
| HMGEGIRIDSTAVVQVGEKMYAYLGGDGFSKEFWTNLPASGELAVTLKFEPIPMDAESLDFYEMPA | 0.154 |
| HMGEILYSGVLKGGDGPEATKLALEKFLGEANTQVAGRIGVQPETQVIWLSREAVDSAASTLSQHKGNMYV | -0.0574 |

| Sequence | soluble fraction (log2) |
| --- | --- |
| HMGELDFYEEMRDDYLTGKIWNVGEIVEAKGMIGEIVRKGTNYISFVTDDNKVHKAWLHEIKL | -1.37 |
| HMGELRAPLPGVIVSIPVKEGDEVKAGQAILIIEAMKMESEISSPIDAKVAKIVVKERVLVQEGDILIILE | -0.876 |
| HMGEMTDFETLRDMYLTGQIWNIDDLIEANGVEGRIVRRGTNYIAFNDRDGKVHKAWLHEVTINE | -1.39 |
| HMGENTIFSGVLGEGRLDSALAHALPQFSRARIQGLIAEDAVLIAGKATNDAASKKFAGQSFELSVPAPRP | 0.0263 |
| HMGEPQAWNELIGNLLRQWEARQTGWTPARKREALDRVLGAADPAALYTRLQGLLKSWTQAMTDADA | -0.956 |
| HMGEQETILKGDVNRDGVVDVNDVTHLQIHISNDDKNPLIDVTNKAWFDAADMYGDGKLDILDATALQIYI | -0.145 |
| HMGERVDGVVKFFNGQKGFGFIQREDGGPDAFVHISAVERAGMAGLDEGQRVSFELELDRRGKQAAINLTP | -0.192 |
| HMGESYGPVRRGETLWSIAEKVKPAGVSTQKELAAIYAANPQAFIRGDINLLKAGAELRLPSPEAL | -0.0107 |
| HMGESYQIKDGELLVDIAQRVKPAGMTLRQTINALVAANPRAFRNGNPDLMYRGATLTIPDGDTLRRLAH | 0.0238 |
| HMGEVQALIPGLVSKLFVVEGESVKIGQKLIILEAMKMENEIASPINGTIKKIYIKSGDKIDKGSIIMEIT | -0.0106 |
| HMGEVVSAPMPGTILSIKVSQGQTVKRGQVLLILEAMKMENEIVAPRDGVVVQISTTQGASVETGAPLVVL | -0.118 |
| HMGEVYPSDIVEKMKQANLHILEGTLYPLLTRLKNAGLLNYRWVESVTGPPRKYFVMTEEGKAAF | 0.0276 |
| HMGEWHQMLRSWGETELKNGRQNILDEAVPAFERAMIETALAHTSGRKKDAALLLGWGRNTLTRKLQEHSI | -0.349 |
| HMGEYGVLWYLLTKKEAVSAGELKEKLHVVPGRMTDILTALEKKGLIIRQKNKTDKRVVDVVLTKEGEKEA | -0.511 |
| HMGFAEFWLAYPKKVGKGEAERKWKTLKPDAGAVLSAVKRQSASEQWRKDGGRYIPNPATWLHQRRWE | 0.243 |
| HMGFALLIAIERTGNTTYFVKLTLIKKGSDSDVLKDSFSVSQGDLVGTATYDSVIANRIREKTAAMWQKAT | -0.73 |
| HMGFDTSMNKYTIDDLLKLLELGSNPSQAEIVNKITNFNTIFVDNSGVIQFLNNIQDKLLDNFK | -0.95 |
| HMGFDTVVEKVLGLITSRPMTSRDIQMTLGRSREHTSRLMNRLYKEGLVDRNTSSKPFSYIITEKGREKI | 0.424 |
| HMGFPAPFDGKAVAELRRRLGLTRRGLAEELSVSPSTVDKWEQGDVALRSPALTILKILWHQGLKALPP | ≥ 0.43 |
| HMGFSDDEHNALADADLKKALEVTTNKSETQYNIAKLIYSYIISLGDKKPYGDWSYDKALSIIHDA | -0.00141 |
| HMGGAVQIAEQIAARIKDGALRPGELLPPVRQLAAELEVNPNTVASAYARLRDAGLVATRGRAGTVVLEPP | -0.246 |
| HMGGAYATVKLSSSSSQLNVRASASTASRVVARLSHGFRVEVLGVSGDWVKIRALGVEGYVARAYLALEGE | -0.17 |

From the domain aggregation screens of Martell et al. (2025)
